Source: paper PMC6141708

Biological target: recombinant GST-RhoA (UniProt P61586)
Test: pull-down; recombinant GST-RhoA on beads; lysates of 293T cells transfected with WT or S9A Fam65b-GFP; 2 h at 4°C; pull-down buffer; anti-GFP immunoblot, band intensities in the pull-down normalised to the total lysate, four independent experiments

Sequence of UniProt P61586 (P61586 whole entry): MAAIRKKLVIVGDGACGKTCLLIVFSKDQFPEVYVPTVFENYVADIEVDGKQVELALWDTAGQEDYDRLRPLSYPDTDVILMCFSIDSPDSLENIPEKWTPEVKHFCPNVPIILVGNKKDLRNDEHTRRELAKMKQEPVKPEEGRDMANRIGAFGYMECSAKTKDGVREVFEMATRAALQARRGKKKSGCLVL

Question: For “Fam65b(S9A)-GFP (isoform 2) (natural protein)”, which fold of Fam65b bound to RhoA against WT Fam65b-GFP is on record?
Answer: Its fold of Fam65b bound to RhoA against WT Fam65b-GFP is 1.8 fold.
